Here are results for 1 molecule from US20200247902A1.

The target of the test is bovine submaxillary mucin (BSM) (bovine). Kind of test: ELISA on BSM-coated wells, 0-100 nM antibody; periodate-treated signal subtracted (periodate-sensitive STn binding curve). (In general: In an ELISA, binding on a coated surface is turned into a signal by an enzyme label.)

For orientation: EC50 means the midpoint of the concentration-response curve.

B1: SIA01 (antibody, V domains shown)
VH: EVQLVQSGAEVKKPGASVKVSCKASGYTFTDHAIHWVRQAPGQGLEWMGYFSPGNDDIKYNEKFRGRVTMTADKSSSTAYMELRSLRSDDTAVYFCKRSLSTPYWGQGTLVTVSS
VL: DIVMTQSPDSLAVSLGERATINCKSSQSLLNRGNHKNYLTWYQQKPGQPPKLLIYWASTRESGVPDRFSGSGSGTDFTLTISSLQAEDVAVYYCQNDYTYPYTFGQGTKVEIK
B1 displayed a half-maximal effective concentration (EC50) of 4.2 nM.
